First the molecules themselves.
B1: Ab19 Fab (Fab, V domains shown)
VH: QVQLQQSGAELARPGASVKLSCKASGYPFTSYGINWVKQRTGQGLEWIGEIYPRIGNTYYNEKFKGKATLTADKSSSTAYMEFRSLTSEDSAVYFCARSWNSNYGEYYFDYWGQGTTLTVS
VL: DIVMTQSHKFMSTSIGDRVSITCKASHDVSTAVAWYQQKPGQSPKLLIYWASTRHTGVPDRFTGSGSGTDYTLTIRSVQAEDLALYYCQQHYSTPYTFGGGTKLEIK
B2: Ab20 Fab (Fab, V domains shown)
VH: EVQLQQSGPELVKPGASVKISCKASGFSFTGYSMNWMKQSPEKSLEWIGEINPTTGGTTYNQKFKAKATLTVDKSSSTAYIQLKSLTSEDSAVYYCARGRADYWGQGTTLTVSS
VL: DIVLTQSPASLAVSLGQRATISCRASESVEYYGTGLVQWFQQKPGQPPKLLIYAASNVESGVPARFSGSGSGTDFSLNIHSVEEDDIAMYFCHQSRKLPWTFGGGTKLEIK
B3: Ab15 Fab (Fab, V domains shown)
VH: EVQLQQSGPELVKPGASVKISCKASGYSFTGYYMNWVKQSPEKSLEWIGEINPNFGGTTYNQKFKAKATLTVDKSSSTAYMQLKSLTSEDSAVYYCARYYGNLYAMDYWGQGTSVTVS
VL: DILMTQSPSSMSVSLGDTVSITCHASQGISSNIGWLQQKPGKSFKGLIYHGTNLEDGVPSRFSGSGSGAAYSLTISSLESEDFADYYCVQYTHFPYTFGGGTKLEIK
B4: Ab17 Fab (Fab, V domains shown)
VH: EVQLQQSGPELVKPGASVKISCKASGYSFTDYYMNWVKQSPEKSLEWIGEINPNTGGTTYNQKFKAKATLTVDKSSSTAYMQLKSLTSEDSAVYYCARYYGNLYAMDYWGQGTSVTVSS
VL: B3 VL with A70D, T92V, H93Q, F98L
B5: Ab16 Fab (Fab, V domains shown)
VH: B3 VH with T30N, G31N, F55S, G57Y, T59S, K65R, S77T, Y100F, Y104F, Y108F
VL: B3 VL with S30G, H50L, A70D, T92V, H93Q

Residue numbers refer to the chain shown, from its start.

One experiment deals with T1, SARS-2 RBM^hg RBD construct (SARS-2 RBD with engineered glycans at 448, 475, 494 and 501) (SARS-CoV-2 (engineered), UniProt P0DTC2 319-529). Description: BLI with recombinant Fabs, drawn table of KD (µM), column ΔRBM.
For the molecule B1, the Kd is over 100 µM.
Same read-out and setting: the result for B2 reads over 100 µM.
As for B3, the dissociation constant (Kd) was determined as 1.3 µM.

The target in another experiment is T1, SARS-2 RBM^hg RBD construct (SARS-2 RBD …). Description: BLI with recombinant Fabs, drawn table of KD (µM).
As for B1, the dissociation constant Kd is over 100 µM.
The same measure, in the same setting: the figure for B2 is over 100 µM; for B3 it is 1.3 µM; for B4 it is 0.1 µM.
On the same count and under the same terms, the result for B5 reads 0.16 µM.

As usually defined, the Kd is the free concentration of one partner at which half of the binding sites on the other are occupied at equilibrium, for simple one-to-one binding.

The values above are taken from patent publication US20250032605A1 (GENERAL HOSPITAL, published 2025).
